Assay results taken from patent US20040001839A1 (published 2004).
Numbering of substitutions follows the chain as printed. No end group written: not given here. *: point of attachment. sulfate = O=S(=O)(O)*

T1: PSGL-1 on KG-1 cells (human, UniProt Q14242 42-412, sulfated tyrosine residues at the N-terminal site)
T1 construct: whole, on cells; results on KG-1 cells, lysates and membrane fractions are written against this molecule; also called CD162; P-Selectin Glycoprotein Ligand-1
T1 sequence (looked up): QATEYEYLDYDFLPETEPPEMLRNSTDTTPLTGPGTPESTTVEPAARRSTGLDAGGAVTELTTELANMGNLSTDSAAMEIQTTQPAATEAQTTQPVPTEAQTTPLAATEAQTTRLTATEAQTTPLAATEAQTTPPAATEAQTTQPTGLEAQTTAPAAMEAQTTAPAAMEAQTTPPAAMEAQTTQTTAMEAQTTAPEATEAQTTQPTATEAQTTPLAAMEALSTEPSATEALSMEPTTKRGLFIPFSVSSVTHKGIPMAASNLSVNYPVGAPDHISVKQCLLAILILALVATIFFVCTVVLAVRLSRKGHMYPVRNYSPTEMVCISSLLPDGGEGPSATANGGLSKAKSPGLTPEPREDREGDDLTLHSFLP

T2: Lumican (human, UniProt P51884 19-338, contains sulfated tyrosine residues)
T2 construct: The ~80 kDa band was identified as CC4 and lumican together; also called human lumican; H P-ligand 2
T2 sequence (looked up): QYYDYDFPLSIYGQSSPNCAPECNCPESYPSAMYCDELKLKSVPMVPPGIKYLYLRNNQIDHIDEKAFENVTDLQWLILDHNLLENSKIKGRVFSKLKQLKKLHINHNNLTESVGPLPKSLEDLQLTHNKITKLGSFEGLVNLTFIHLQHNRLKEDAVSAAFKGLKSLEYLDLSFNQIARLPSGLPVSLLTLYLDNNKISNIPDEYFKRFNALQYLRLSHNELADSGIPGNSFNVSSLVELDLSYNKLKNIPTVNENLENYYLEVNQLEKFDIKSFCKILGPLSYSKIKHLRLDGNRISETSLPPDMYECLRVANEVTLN

B1: F-Y*Y* (peptide)
peptide: VRPEHPAETEY(sulfate)ESLY(sulfate)PEDDL
notes: also called Fibrinogen-γ-prime chain peptide, sulfated
B2: P-3-S (peptide)
peptide: GDEGDTDLY(sulfate)DY(sulfate)Y(sulfate)P
notes: also called residues 268-280 of GPIbα, sulfated
B3: Y1-IgG (antibody, V domains shown)
VH: EVQLVESGGGVVRPGGSLRLSCAASGFTFDDYGMSWVRQAPGKGLEWVSGINWNGGSTGYADSVKGRFTISRDNAKNSLYLQMNSLRAEDTAVYYCARMRAPVIWGQGTLVTVSR
VL: SELTQDPAVSVALGQTVRITCQGDSLRSYYASWYQQKPGQAPVLVIYGKNNRPSGIPDRFSGSSSGNTASLTITGAQAEDEADYYCNSRDSSGNHVVFGGGTKLTVL
B4: P-2-S (peptide)
peptide: TDLY(sulfate)DY(sulfate)Y(sulfate)PEEDTE
notes: also called residues 273-285 of GPIbα, sulfated
B5: F-YY (peptide)
peptide: VRPEHPAETEYESLYPEDDL
notes: also called Fibrinogen-γ-prime chain peptide, non-sulfated
B6: Y1 scFv (scFv)
scFv: EVQLVESGGGVVRPGGSLRLSCAASGFTFDDYGMSWVRQAPGKGLEWVSGINWNGGSTGYADSVKGRFTISRDNAKNSLYLQMNSLRAEDTAVYYCARMRAPVIWGQGTLVTVSRGGGGSGGGGSGGGGSSELTQDPAVSVALGQTVRITCQGDSLRSYYASWYQQKPGQAPVLVIYGKNNRPSGIPDRFSGSSSGNTASLTITGAQAEDEADYYCNSRDSSGNHVVFGGGTKLTVLGAAAEQKLISEEDLNGAA
notes: Fully human scFv from the Nissim I phage library; Used biotin-labelled in most Western blots; also called scFv Y1; scFv-Y1
B7: Y17 scFv (scFv)
scFv: B6 scFv with M99L, R100T, A101H, V103Y, I104F
notes: Human scFv selected on platelets in the same way as Y1; also called biotin labeled-Y17
B8: CONY1 (scFv)
scFv: EVQLVESGGGVVRPGGSLRLSCAASGFTFDDYGMSWVRQAPGKGLEWVSGINWNGGSTGYADSVKGRFTISRDNAKNSLYLQMNSLRAEDTAVYYCARMRAPVIWGQGTLVTVSRGGGGSGGGGSGGGGSSELTQDPAVSVALGQTVRITCQGDSLRSYYASWYQQKPGQAPVLVIYGKNNRPSGIPDRFSGSSSGNTASLTITGAQAEDEADYYCNSRDSSGNHVVFGGGTKLTVLGAAAKAK
notes: also called Y1-kak; Y1 scFv monomer
B9: Y1-cys-kak (cysteine dimer) (other)
scFv 1: MEVQLVESGGGVVRPGGSLRLSCAASGFTFDDYGMSWVRQAPGKGLEWVSGINWNGGSTGYADSVKGRFTISRDNAKNSLYLQMNSLRAEDTAVYYCARMRAPVIWGQGTLVTVSRGGGGSGGGGSGGGGSSELTQDPAVSVALGQTVRITCQGDSLRSYYASWYQQKPGQAPVLVIYGKNNRPSGIPDRFSGSSSGNTASLTITGAQAEDEADYYCNSRDSSGNHVVFGGGTKLTVLGGGGCKAK
scFv 2: B9 scFv 1
modifications: Interchain disulfide between Cys 243 of chain 1 and Cys 243 of chain 2; in the FACS of paragraph 474 the dimer also carried FITC.
notes: also called Y1-cys-kak scFv dimer; S-S Y1 dimer

Legend:
Y1 scFv [1] = molecular target: B6; experiment: competition ELISA: Y1 0.25 µg/well preincubated with peptide at 2.5 µM, residual binding to glycocalicin
Y1 scFv [2] = molecular target: B6; experiment: competitive FACS: Y1-scFv 1 µg preincubated with peptide at 2.5 µM, residual binding to washed platelets
Protocol: (§1) In addition, FACS analysis using washed platelets was carried out. […] A polystyrene microtiter maxisorb plate was coated with (a) purified glycocalicin or (b) washed platelets. […] The plate was then incubated with rabbit anti-scFv followed by addition of anti rabbit-HRP (horse radish peroxidase) and HRP substrate. […] The optical density was measured at A₄₀₅. Each sample was assayed in duplicate, and the average was calculated.

Y1 scFv [3] = molecular target: B6; experiment: competitive FACS: Y1-scFv 1 µg preincubated with peptide at 200 µM, residual binding to washed platelets
Protocol: as §1

Y1 scFv [4] = molecular target: B6; experiment: competition ELISA: Y1 0.25 µg/well preincubated with peptide at 0.5 µM, residual binding to glycocalicin
Y1 scFv [5] = molecular target: B6; experiment: competition ELISA: Y1 0.25 µg/well preincubated with peptide at 25 µM, residual binding to glycocalicin
Y1 scFv [6] = molecular target: B6; experiment: competition ELISA: peptide (1, 10, 100 µM) preincubated with scFv Y1, binding to immobilized glycocalicin
PSGL-1 on KG-1 cells [7] = molecular target: T1, PSGL-1 on KG-1 cells; experiment: radio receptor binding assay on KG-1 cells, tracer 125I-Y1-IgG 2 ng/tube
Protocol: (§2) The assay tubes contained 5×10⁶ KG-1 cells per 0.2 ml and a labeled tracer with varying amounts of unlabeled competitor, in PBS+0.1% BSA, pH 7.4. After one hour incubation with agitation at 4° C., the cells were thoroughly washed with cold buffer and taken for radioactivity counting.

PSGL-1 on KG-1 cells [8] = molecular target: T1, PSGL-1 on KG-1 cells; experiment: Western blot of RP-HPLC KG-1 membrane fraction after O-Sialo glycoprotein endopeptidase, 30' at 37° C.
Lumican = molecular target: T2, Lumican; experiment: Western blot of human plasma proteins
[9] = molecular target: T3, GPIbα small N-terminal 42 kDa fragment (His1-Leu275) (human, UniProt P07359 17-291); experiment: Western blot of cathepsin G digested glycocalicin
T3 construct: also called smaller N-terminal fragment (cathepsin G)
T3 sequence (P07359 17-291 limits assumed): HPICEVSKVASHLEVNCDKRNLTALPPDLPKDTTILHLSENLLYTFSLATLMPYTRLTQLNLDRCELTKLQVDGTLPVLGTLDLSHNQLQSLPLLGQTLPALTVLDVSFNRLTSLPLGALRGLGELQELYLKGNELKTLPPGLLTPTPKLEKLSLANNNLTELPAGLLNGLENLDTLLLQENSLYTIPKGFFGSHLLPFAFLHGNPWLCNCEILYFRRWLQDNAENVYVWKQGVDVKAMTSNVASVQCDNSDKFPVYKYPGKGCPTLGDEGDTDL
Description: Glycocalicin and glycocalicin fragments generated by cathepsin G digestion were separated on SDS-polyacrylamide gels and transferred to nitrocellulose.

PSGL-1 on KG-1 cells [10] = molecular target: T1, PSGL-1 on KG-1 cells; experiment: FACS on KG-1 cells
PSGL-1 on KG-1 cells [11] = molecular target: T1, PSGL-1 on KG-1 cells; experiment: second radio receptor binding assay on KG-1 cells, labeled tracer 100 ng/tube
Protocol: as §2

PSGL-1 on KG-1 cells [12] = molecular target: T1, PSGL-1 on KG-1 cells; experiment: radio receptor assay on KG-1 cells, dimer as competitor
PSGL-1 on KG-1 cells [13] = molecular target: T1, PSGL-1 on KG-1 cells; experiment: radioreceptor assay, ELISA or FACS; KG-1 cells
PSGL-1 on KG-1 cells [14] = molecular target: T1, PSGL-1 on KG-1 cells; experiment: FACS on KG-1 cells, FITC-labeled

In the case of REEGRQHFFLLEGRSSYS (also called negative control peptide) [EGR], the “Residual Binding of Y1 (% of baseline)” value (Y1 scFv [1]) is reported as 100%, the “Residual Binding of Y1 (% of baseline) (Geo Mean)” value (Y1 scFv [2]) is reported as 96% and the “Residual Binding of Y1 (% of baseline) (Geo Mean)” value (Y1 scFv [3]) is reported as 119%. The “Residual Binding of Y1 (% of baseline)” value (Y1 scFv [4]) was 121% and the “Residual Binding of Y1 (% of baseline)” value (Y1 scFv [5]) was 89%.

B1: no binding (tested: 100 µM) (Y1 scFv [6]).

B2 was tested, and the “Residual Binding of Y1 (% of baseline)” value (Y1 scFv [1]) was 67%, the “Residual Binding of Y1 (% of baseline) (Geo Mean)” value (Y1 scFv [2]) was 82% and the “Residual Binding of Y1 (% of baseline) (Geo Mean)” value (Y1 scFv [3]) was 26%. The “Residual Binding of Y1 (% of baseline)” value (Y1 scFv [4]) was 80% and the “Residual Binding of Y1 (% of baseline)” value (Y1 scFv [5]) was 21%.

Binder B3 has a Kd (PSGL-1 on KG-1 cells [7]) of about 20 nM.

B4 was tested, and the “Residual Binding of Y1 (% of baseline)” value (Y1 scFv [1]) was 52%, the “Residual Binding of Y1 (% of baseline) (Geo Mean)” value (Y1 scFv [2]) was 61% and the “Residual Binding of Y1 (% of baseline) (Geo Mean)” value (Y1 scFv [3]) was 7%. For the same binder, the “Residual Binding of Y1 (% of baseline)” value (Y1 scFv [4]) was 78% and the “Residual Binding of Y1 (% of baseline)” value (Y1 scFv [5]) was 15%.

B5: no binding (tested: 100 µM) (Y1 scFv [6]).

B6: binds (PSGL-1 on KG-1 cells [8]); binds (Lumican).

B7: no binding [9]; binds (PSGL-1 on KG-1 cells [10]).

For B8, the Kd (PSGL-1 on KG-1 cells [11]) was about 1000 nM.

B9 was tested, and the Kd (PSGL-1 on KG-1 cells [11]) was about 50 nM, the “fold higher affinity than CONY1” value (PSGL-1 on KG-1 cells [11]) was 20 fold and the “fold more efficient than the monomer” value (PSGL-1 on KG-1 cells [12]) was 30 fold. The Kd (PSGL-1 on KG-1 cells [7]) was about 40 nM, the “fold higher affinity than CONY1” value (PSGL-1 on KG-1 cells [7]) was 30 fold and the “fold lower affinity than the full Y1 antibody” value (PSGL-1 on KG-1 cells [7]) was 2 fold. For the same binder, the “fold higher binding than the Y1 scFv monomer” value (PSGL-1 on KG-1 cells [13]) was at least 20 fold and the “fold less material than the monomer” value (PSGL-1 on KG-1 cells [14]) was 10 fold.
